Reference: patent publication US20240018226A1

Molecular target: pHrodo-labeled 4RON human tau P301L soluble oligomer (human), P10636
Assay: cell-based or functional assay

Sequence of pHrodo-labeled 4RON human tau P301L soluble oligomer (human), P10636 (P10636 other isoform, or with tags, fused parts or gaps P301L P301L): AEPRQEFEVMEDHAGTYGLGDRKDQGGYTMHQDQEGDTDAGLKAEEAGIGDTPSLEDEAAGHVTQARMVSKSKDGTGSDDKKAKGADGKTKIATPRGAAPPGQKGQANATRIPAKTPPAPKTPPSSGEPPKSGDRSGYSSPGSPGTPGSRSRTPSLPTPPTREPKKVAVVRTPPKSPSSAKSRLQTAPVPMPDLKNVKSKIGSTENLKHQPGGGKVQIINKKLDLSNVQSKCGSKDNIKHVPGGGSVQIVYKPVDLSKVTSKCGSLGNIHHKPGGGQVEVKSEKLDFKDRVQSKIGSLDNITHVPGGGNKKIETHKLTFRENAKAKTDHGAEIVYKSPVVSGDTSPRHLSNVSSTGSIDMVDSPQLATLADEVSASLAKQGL

IC50 of inhibition of tau internalization into B103 neuroblastoma cells (pHrodo Texas Red mean fluorescence intensity, FACS): 9 nM
B1: mouse 3D6 (antibody, V domains shown)
VH: EVQLQQSGADLVRPGALVKLSCKASGFNIKDYYLHWVRQRPEQGLEWIGWIDPENGDTVYDPKFQGKATITADTSSNTAYLQLGSLTSEDTAVYFCSTLDFWGQGTTLTVSS
VL: not shown
modifications: here or on the partner: labeled with pHrodo Red succinimidyl ester (sites not given)
